Publication PMC6914384 (Nature, 2018)
No end group written: not given here.

Target: T1, p300 BRP (Homo sapiens, UniProt Q09472)
T1 sequence (Q09472 1048-1282): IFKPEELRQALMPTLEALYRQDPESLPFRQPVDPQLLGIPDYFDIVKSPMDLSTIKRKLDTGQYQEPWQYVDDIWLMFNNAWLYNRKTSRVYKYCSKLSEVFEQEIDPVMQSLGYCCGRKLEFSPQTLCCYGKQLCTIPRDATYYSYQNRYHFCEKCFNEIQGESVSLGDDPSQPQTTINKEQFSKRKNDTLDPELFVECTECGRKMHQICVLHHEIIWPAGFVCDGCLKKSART
Assay: ITC of histone and AIL peptides with p300 BRP
Format: binding
Details: p300 BRP module; for Binding by ITC, result in words (printed in column N): Kd cell prints --

**Q.** For “H3 K4me1 (1-20): histone H3 peptide 1-20, K4me1”, which “Binding by ITC, result in words (printed in column N)” value (shortened to “Binding by ITC, result in words”) is on record?
**A.** Its value is “No binding”.

**Q.** Which “Binding by ITC, result in words” value does the source give for “H3T11pho (1-20): histone H3 peptide 1-20, T11 phosphorylated” here?
**A.** Its value is “No binding”.

**Q.** With “H3 K4me3 (1-20): histone H3 peptide 1-20, K4me3” as the substance, how does the “Binding by ITC, result in words” value read?
**A.** The value was “No binding”.

**Q.** How did the “Binding by ITC, result in words” value turn out when “H4 K5ac (4-24): histone H4 peptide 4-24, K5ac” was run?
**A.** Its value is “No binding”.

**Q.** How did the “Binding by ITC, result in words” value turn out when “H3 K9ac (1-20): histone H3 peptide 1-20, K9ac” was run?
**A.** Its value is “No binding”.

**Q.** “H3 S10pho (1-20): histone H3 peptide 1-20, S10 phosphorylated” was tested. Which “Binding by ITC, result in words” value did it give?
**A.** Its value is “No binding”.

**Q.** With “AIL K1549K1558K1560tri-ac (1545-1562): p300 autoinhibitory loop peptide 1545-1562 acetylated on K1549, K1558, K1560 (SKNAK(Ac)KKNNKKTSK(Ac)NK(Ac)SS)” as the substance, how does the “Binding by ITC, result in words” value read?
**A.** Its value is “No binding”.

**Q.** “ARTKQTQRKSTGGKAPRKQL [H3 unmodified (1-20)]” was tested. Which “Binding by ITC, result in words” value did it give?
**A.** Its value is “No binding”.

**Q.** Which “Binding by ITC, result in words” value does the source give for “H4 K16ac (4-24): histone H4 peptide 4-24, K16ac” here?
**A.** The value was “No binding”.

**Q.** Which “Binding by ITC, result in words” value does the source give for SKNAKKKNNKKTSKNKSS [AIL (1545-1562)] here?
**A.** Its value is “No binding”.

**Q.** “H3 K18ac (1-20): histone H3 peptide 1-20, K18ac” was tested. Which “Kd (μM)” value (mean and s.d. of experiments in triplicate) did it give?
**A.** Its value is “large”.
